# Key:
# [1] = molecular target: T1, 630 SLP (surface layer protein of C. difficile strain 630, HMW and LMW subunits) (Clostridioides difficile 630 (ribotype …, UniProt Q183M8, strain)); assay: SPR; Biacore 3000; 630 SLP immobilised on a CM5 chip, VHHs injected at various concentrations; data not shown; conditions: both partners purified
# T1 construct: low-molecular-weight (LMW) subunit of the surface layer protein, cut from the precursor SlpA by Cwp84, C. difficile strain 630 (ribotype 012); predicted mass 34.2 kDa; high-molecular-weight (HMW) subunit of the surface layer protein, cut from the precursor SlpA by Cwp84, C. difficile strain 630 (ribotype 012); predicted mass 39.5 kDa; Both subunits come from one precursor, SlpA; source: purified …
# [2] = molecular target: T2, QCD-32g58 SLP (surface layer protein of C. difficile strain QCD-32g58, HMW and LMW subunits) (Clostridioides difficile QCD-32g58 …, UniProt A0A9R0BMB3, strain); assay: SPR; Biacore 3000; fresh QCD-32g58 SLP surface on a CM5 chip, a single injection of each VHH (50 mM NaOH regeneration destroyed the surface); 25 °C, 10 mM HEPES pH 7.4, 150 mM NaCl, 3 mM EDTA, 0.005 % P20; KD from kinetic rate constants; conditions: both partners purified
# T2 construct: low-molecular-weight (LMW) subunit of the surface layer protein, cut from the precursor SlpA by Cwp84, C. difficile strain QCD-32g58 (ribotype 027); predicted mass 33.9 kDa; high-molecular-weight (HMW) subunit of the surface layer protein, cut from the precursor SlpA by Cwp84, C. difficile strain QCD-32g58 (ribotype 027); predicted mass 44.2 kDa; Both subunits come from one precursor, SlpA; also …
# [3] = molecular target: T3, QCD-32g58 LMW SLP (low-molecular-weight subunit of the QCD-32g58 surface layer protein) (Clostridioides difficile QCD-32g58 …, UniProt A0A9R0BMB3, strain); assay: SPR; Biacore 3000; SEC-purified QCD-32g58 LMW SLP subunit amine-coupled to a CM5 chip; single-concentration screen, 200 nM VHH; 25 °C, 10 mM HEPES pH 7.4, 150 mM NaCl, 3 mM EDTA, 0.005 % P20; conditions: both partners purified
# T3 construct: low-molecular-weight (LMW) subunit of the surface layer protein, cut from the precursor SlpA by Cwp84, C. difficile strain QCD-32g58 (ribotype 027); predicted mass 33.9 kDa; also called QCD-32g58 SLP LMW subunit; LMW subunit; source: purified from C. difficile QCD-32g58 (low-pH glycine extraction, minor SEC peak at about 15 ml); in the Western blot the LMW band of the extracted SLPs
# [4] = molecular target: T4, SLP on cells of C. difficile strain 196 (ribotype 027) (Clostridioides difficile 196 (ribotype …, UniProt A0A9R0BMB3, strain)); assay: ELISA; whole cell ELISA: formalin-fixed C. difficile cells coated on MaxiSorp plates, His6-tagged VHH at 10 μg/ml in PBS-T, 37 °C, 1 h, detected with anti-His6-HRP; conditions: one partner purified
# T4 construct: LMW subunit of the surface layer protein (from the precursor SlpA), C. difficile strain 196, ribotype 027; HMW subunit of the surface layer protein (from the precursor SlpA), C. difficile strain 196, ribotype 027; Whole cells were the antigen; source: endogenous, on formalin-fixed C. difficile 196 cells
# [5] = molecular target: T5, SLP on cells of C. difficile strain R20291 (ribotype 027) (Clostridioides difficile R20291 …, UniProt A0A9R0BMB3, strain); assay: as above; conditions: one partner purified
# T5 construct: LMW subunit of the surface layer protein (from the precursor SlpA), C. difficile strain R20291, ribotype 027; HMW subunit of the surface layer protein (from the precursor SlpA), C. difficile strain R20291, ribotype 027; Whole cells were the antigen; source: endogenous, on formalin-fixed C. difficile R20291 cells
# [6] = molecular target: T6, SLP on cells of C. difficile strain BI-1 (ribotype 027) (Clostridioides difficile BI-1 (ribotype …, UniProt A0A9R0BMB3, strain)); assay: as above; conditions: one partner purified
# T6 construct: LMW subunit of the surface layer protein (from the precursor SlpA), C. difficile strain BI-1, ribotype 027; HMW subunit of the surface layer protein (from the precursor SlpA), C. difficile strain BI-1, ribotype 027; Whole cells were the antigen; source: endogenous, on formalin-fixed C. difficile BI-1 cells
# [7] = molecular target: T7, SLP on cells of C. difficile strain BI-7 (ribotype 027) (Clostridioides difficile BI-7 (ribotype …, UniProt A0A9R0BMB3, strain)); assay: as above; conditions: one partner purified
# T7 construct: LMW subunit of the surface layer protein (from the precursor SlpA), C. difficile strain BI-7, ribotype 027; HMW subunit of the surface layer protein (from the precursor SlpA), C. difficile strain BI-7, ribotype 027; Whole cells were the antigen; source: endogenous, on formalin-fixed C. difficile BI-7 cells
# [8] = molecular target: T1, 630 SLP (surface layer protein of C. …); assay: ELISA; monoclonal phage ELISA: phage-displayed VHHs on immobilized SLPs; conditions: one partner purified
# [9] = molecular target: T2, QCD-32g58 SLP (surface layer protein of …); assay: SPR; Biacore 3000; SEC-purified QCD-32g58 SLP amine-coupled to a CM5 chip, VHH monomer fractions injected at various concentrations; 25 °C, 10 mM HEPES pH 7.4, 150 mM NaCl, 3 mM EDTA, 0.005 % P20; KD by steady-state analysis; conditions: both partners purified
# [10] = molecular target: T2, QCD-32g58 SLP (surface layer protein of …); assay: SPR; Biacore 3000; SEC-purified QCD-32g58 SLP amine-coupled to a CM5 chip, VHH monomer fractions injected at various concentrations; 25 °C, 10 mM HEPES pH 7.4, 150 mM NaCl, 3 mM EDTA, 0.005 % P20, 20 μl/min; KD from kinetic rate constants; conditions: both partners purified
Binder,binding result [1],Kd [3] [nM],koff [3] [s⁻¹],kon [3] [M⁻¹ s⁻¹],binding result [4],binding result [5],binding result [6],binding result [7],binding result [8],further results
"SLP_VHH12 (VHH, From an immune llama phage display library panned on QCD-32g58 SLP; source: monomeric SEC fractions for SPR; not shown: His6, C-terminal, kept) VHH: QVQLVESGGGLVQAGDSLRLSCAASGGTFSSYAVGWFRQAPGKERQFVAAISWSGRSTEYADSVKGRFTISRDNAKNTVYLQMNSLQPDDTGVYYCAADWSHPENKAELLRLRLWVLSAESSDYWGQGTQVTVSS",no binding,1,0.00012,140000,binds,binds,binds,binds,–,Kd [2]: 3 nM; koff [2]: 0.00034 s⁻¹; kon [2]: 120000 M⁻¹ s⁻¹
"SLP_VHH12 displayed on phage (VHH, as the VHH of m3) VHH: QVQLVESGGGLVQAGDSLRLSCAASGGTFSSYAVGWFRQAPGKERQFVAAISWSGRSTEYADSVKGRFTISRDNAKNTVYLQMNSLQPDDTGVYYCAADWSHPENKAELLRLRLWVLSAESSDYWGQGTQVTVSS",–,–,–,–,–,–,–,–,no binding,–
"SLP_VHH49 (VHH, From an immune llama phage display library panned on QCD-32g58 SLP; source: monomeric SEC fractions for SPR; not shown: His6, C-terminal, kept) VHH: QVKLEESGGGLVQAGGSLRLSCAASEGAFSDALSRHAAGWFRQAPGKEREFVAAISWNGANTDYKNSVNNRFTISRDTSKNTVYLQMNSLKPEDTAVYYCAAKNEPSWISRIYYRGLEYDYWGQGTQVTVSS",no binding,20,0.012,590000,binds,binds,binds,binds,–,Kd [9]: 48 nM
"SLP_VHH49 displayed on phage (VHH, as the VHH of m8) VHH: QVKLEESGGGLVQAGGSLRLSCAASEGAFSDALSRHAAGWFRQAPGKEREFVAAISWNGANTDYKNSVNNRFTISRDTSKNTVYLQMNSLKPEDTAVYYCAAKNEPSWISRIYYRGLEYDYWGQGTQVTVSS",–,–,–,–,–,–,–,–,no binding,–
"SLP_VHH50 displayed on phage (VHH, as the VHH of m9) VHH: QVKLEESGGGLVQPGGSLRLSCAASGFTLDYYTIGWFRQAPGKEREGVACISSDDRTYYVDSVKGRFAISRDNVKNTVYLQMNNLKPEDTAVYYCASKESVFLIATMKGCAPGHDDYWGQGTQVTVSS",–,–,–,–,–,–,–,–,no binding,–
"SLP_VHH23 (VHH, From an immune llama phage display library panned on QCD-32g58 SLP; source: monomeric SEC fractions for SPR; not shown: His6, C-terminal, kept) VHH: QVQLVESGGGLVQAGGSLRLSCAASGRTFSSYAVGWFRQAPGKEREFVAAISWSGGYTDYADSVKGRFTISRDNAKNTVYLQMNNLKPEDTAVYYCAADWSHPENKAELLRLRLWVLSAESSDDWGQGTQVTVSS",no binding,3,0.00032,110000,binds,binds,binds,binds,–,Kd [2]: 4 nM; koff [2]: 0.00037 s⁻¹; kon [2]: 94000 M⁻¹ s⁻¹
"SLP_VHH23 displayed on phage (VHH, as the VHH of m5) VHH: QVQLVESGGGLVQAGGSLRLSCAASGRTFSSYAVGWFRQAPGKEREFVAAISWSGGYTDYADSVKGRFTISRDNAKNTVYLQMNNLKPEDTAVYYCAADWSHPENKAELLRLRLWVLSAESSDDWGQGTQVTVSS",–,–,–,–,–,–,–,–,no binding,–
"SLP_VHH46 (VHH, From an immune llama phage display library panned on QCD-32g58 SLP; source: monomeric SEC fractions for SPR; not shown: His6, C-terminal, kept) VHH: QVKLEESGGGLVQAGGSLRLSCADSERTFRIYTMAWFRQAPGKERDFVAAISWSGGSTYYADSVKGRFTISRDNAKNTVYLPMNSLKPDDTAVYYCASGGVLSTGSQSDSEYDFWGQGTQVTVSS",no binding,2,0.00032,150000,binds,binds,binds,binds,–,Kd [10]: 3 nM; koff [10]: 0.00034 s⁻¹; kon [10]: 110000 M⁻¹ s⁻¹
"SLP_VHH46 displayed on phage (VHH, as the VHH of m7) VHH: QVKLEESGGGLVQAGGSLRLSCADSERTFRIYTMAWFRQAPGKERDFVAAISWSGGSTYYADSVKGRFTISRDNAKNTVYLPMNSLKPDDTAVYYCASGGVLSTGSQSDSEYDFWGQGTQVTVSS",–,–,–,–,–,–,–,–,no binding,–
"SLP_VHH2 (VHH, From an immune llama phage display library panned on QCD-32g58 SLP; source: monomeric SEC fractions for SPR; not shown: His6, C-terminal, kept) VHH: QVKLEESGGGLVQPGGSLRLSCAASGGTFTNYAMAWFRQTPGNDREFVGIISQKGGRTYYADSVKGRFSVSRDNAKNTAYLQMNSLKPEDTAVYYCAAGDSSYYYTRSRYDIWGQGTQVTVSS",–,90,0.013,150000,binds,binds,binds,binds,–,Kd [9]: 230 nM; Kd [1]: 1000 nM
"SLP_VHH22 displayed on phage (VHH, as the VHH of m4) VHH: QVQLVESGGGLVQPGGSLRLSCAASGFTLDSYAIGWFRQAPGKEHEGISCISSNGGSTYYTDSVKGRFTISRDNAKNTVYLQMNSLESEDSAVYYCATVRRCSSLDMALGALATRTKGYDYWGQGTQVTVSS",–,–,–,–,–,–,–,–,no binding,–
"SLP_VHH5 (VHH, From an immune llama phage display library panned on QCD-32g58 SLP; source: monomeric SEC fractions for SPR; not shown: His6, C-terminal, kept) VHH: QVKLEESGGGLVQAGGSLRLSCAASRLTFSTYHMGWFRQAPGKEREFVAALSWSGGTTYYADSVKGRFGISRDNAKNTVYLQMNSLKPEDTAVYYCASGGVLATMNSDEYDYWGQGTQVTVSS",–,3,0.00041,140000,binds,binds,binds,binds,–,Kd [10]: 6 nM; koff [10]: 0.00046 s⁻¹; kon [10]: 82000 M⁻¹ s⁻¹

# Source: publication PMC4768215, “Targeting surface-layer proteins with single-domain antibodies: a potential therapeutic approach against Clostridium difficile-associated disease” (Applied Microbiology and Biotechnology, 2015)
